Reference: the Human Domainome abundance scans (Beltran et al. 2025)
± gives the uncertainty stated by the source.

B1: POU domain, class 4, transcription factor 1, residues 266 to 347; numbered along this chain, Q01851 (parent)
chain: RELEAFAERFKQRRIKLGVTQADVGSALANLKIPGVGSLSQSTICRFESLTLSHNNMIALKPILQAWLEEAEGAQREKMNKP

Variants of: B1
Experiment: abundance fitness (aPCA) (normalised: wild type 0, dead -1); higher = more abundant; growth selection in yeast, the domain comes from the species named
Details: Homo sapiens

Variant | abundance fitness
RELEAFAERFKQRRIKLGVTQADVGSALANLKIPGVGGLSQSTICRFESLTLSHNNMIALKPILQAWLEEAEGAQREKMNKP [S38G] | -0.203 ± 0.13
RELEAFAERFKQRRIKLGVTQADVGSALANLKIPGVGSLSQSTICRFESLTLSHNNMAALKPILQAWLEEAEGAQREKMNKP [I58A] | 0.041 ± 0.053
RELEAFAERFKQRRIKLGVTQADVGSALANLKIPGVGSLSQSTICRFESLTLSHNNMGALKPILQAWLEEAEGAQREKMNKP [I58G] | -0.147 ± 0.045
RELEAFEERFKQRRIKLGVTQADVGSALANLKIPGVGSLSQSTICRFESLTLSHNNMIALKPILQAWLEEAEGAQREKMNKP [A7E] | -0.884 ± 0.058
RELEAFDERFKQRRIKLGVTQADVGSALANLKIPGVGSLSQSTICRFESLTLSHNNMIALKPILQAWLEEAEGAQREKMNKP [A7D] | -1.11 ± 0.14
RELEAFAERFKQRRIKLGVTQADVGSALANLKIPGVGSLSQSTICRFESLTLSHNNMIALKPITQAWLEEAEGAQREKMNKP [L64T] | -0.76 ± 0.15
RELEAFAERFKQRSIKLGVTQADVGSALANLKIPGVGSLSQSTICRFESLTLSHNNMIALKPILQAWLEEAEGAQREKMNKP [R14S] | -0.906 ± 0.059
RELEAFAEVFKQRRIKLGVTQADVGSALANLKIPGVGSLSQSTICRFESLTLSHNNMIALKPILQAWLEEAEGAQREKMNKP [R9V] | -0.047 ± 0.065
RELEAFAEGFKQRRIKLGVTQADVGSALANLKIPGVGSLSQSTICRFESLTLSHNNMIALKPILQAWLEEAEGAQREKMNKP [R9G] | -0.015 ± 0.041
AELEAFAERFKQRRIKLGVTQADVGSALANLKIPGVGSLSQSTICRFESLTLSHNNMIALKPILQAWLEEAEGAQREKMNKP [R1A] | -0.132 ± 0.042
RELEAFAERFKQRRIKLGVTQADVGSALANLKIPGVGSLSQSNICRFESLTLSHNNMIALKPILQAWLEEAEGAQREKMNKP [T43N] | -0.199 ± 0.26
RELEAFAERFKQRRIKLGVTQADVGSALANLKIPGVGSLSQSTICRFESFTLSHNNMIALKPILQAWLEEAEGAQREKMNKP [L50F] | 0.052 ± 0.042
RELEAFAERFAQRRIKLGVTQADVGSALANLKIPGVGSLSQSTICRFESLTLSHNNMIALKPILQAWLEEAEGAQREKMNKP [K11A] | -0.023 ± 0.056
RELEAFAERFKQRRIKLGVTQADVGSALANLKIPGVGSLSQSTICRFESLTLSHNNMIALKPILQAWLEMAEGAQREKMNKP [E70M] | -0.1 ± 0.032
RELEAFAERFKQRRVKLGVTQADVGSALANLKIPGVGSLSQSTICRFESLTLSHNNMIALKPILQAWLEEAEGAQREKMNKP [I15V] | -0.023 ± 0.035
RELEAFAERFKQRRIKLGVTQADVGSALANLKIPGVGSLSQSTICRFESLTLSHNNMIALKPILQAWLEEAEGAQMEKMNKP [R76M] | 0.044 ± 0.032
RELEAFAERFKQRRIKLGVTQADVGSALANLKIPGVGSLSQSTICRFESLTLSHNNMIALDPILQAWLEEAEGAQREKMNKP [K61D] | -0.635 ± 0.15

Variant | abundance fitness
RELEAFAERFKQRRIKLGVTQADVGSALANLKIPGVGSLSQSTICRFESLTLSHNNMIALGPILQAWLEEAEGAQREKMNKP [K61G] | -0.305 ± 0.037
RELEAFAERFKQRRIKLGVTQADVGSALAFLKIPGVGSLSQSTICRFESLTLSHNNMIALKPILQAWLEEAEGAQREKMNKP [N30F] | 0.037 ± 0.13
RELEAFAERFKQRRIKLGVTQADVGSALANLKIPGVHSLSQSTICRFESLTLSHNNMIALKPILQAWLEEAEGAQREKMNKP [G37H] | -0.05 ± 0.066
RELEAFAERFKQRRIKRGVTQADVGSALANLKIPGVGSLSQSTICRFESLTLSHNNMIALKPILQAWLEEAEGAQREKMNKP [L17R] | -0.664 ± 0.046
RELEAFAERFKQRRIKWGVTQADVGSALANLKIPGVGSLSQSTICRFESLTLSHNNMIALKPILQAWLEEAEGAQREKMNKP [L17W] | -0.336 ± 0.044
RELEAFAERFKQRRIKPGVTQADVGSALANLKIPGVGSLSQSTICRFESLTLSHNNMIALKPILQAWLEEAEGAQREKMNKP [L17P] | -1.06 ± 0.08
RELEAFAERFKQRRIKEGVTQADVGSALANLKIPGVGSLSQSTICRFESLTLSHNNMIALKPILQAWLEEAEGAQREKMNKP [L17E] | -0.804 ± 0.075
RELEAFAERFKQRRIKHGVTQADVGSALANLKIPGVGSLSQSTICRFESLTLSHNNMIALKPILQAWLEEAEGAQREKMNKP [L17H] | -0.54 ± 0.047
RELEAFAERFKQRRIKLGVTQADVGSALANLKIPGVGSLSQSTIERFESLTLSHNNMIALKPILQAWLEEAEGAQREKMNKP [C45E] | 0.06 ± 0.046
RELEAFAERFKQRRIKLGVTQADVGSALANLKIPGVGSLSQSTICRFESLTLSHNKMIALKPILQAWLEEAEGAQREKMNKP [N56K] | 0.015 ± 0.069
RELEAFAERFKQRRIKLGVTQADVGSALANLKIPGVGSLSQSTICRFESLELSHNNMIALKPILQAWLEEAEGAQREKMNKP [T51E] | 0.032 ± 0.07
RELEAFAERFKQRRIKLGVTQADVGSALANLKIPGVGSLSQSTICRFESLVLSHNNMIALKPILQAWLEEAEGAQREKMNKP [T51V] | -0.105 ± 0.038
RELEAFAERFKQRRIKLGVTQADVGSALANLKIPGVGSLSQSTICRFESLLLSHNNMIALKPILQAWLEEAEGAQREKMNKP [T51L] | -0.022 ± 0.031
RELEAFAERFKQRRIKLSVTQADVGSALANLKIPGVGSLSQSTICRFESLTLSHNNMIALKPILQAWLEEAEGAQREKMNKP [G18S] | -0.241 ± 0.1
RELEAFAERFKQRRIKLLVTQADVGSALANLKIPGVGSLSQSTICRFESLTLSHNNMIALKPILQAWLEEAEGAQREKMNKP [G18L] | -0.724 ± 0.46
RELEAFAERFKQRRIKLGVTQADVGSALANLKIPGVGSLSQSTICRFESLTWSHNNMIALKPILQAWLEEAEGAQREKMNKP [L52W] | -0.546 ± 0.071
